# Test results taken from US6916645B2, “Amylases” (Kao Corporation, priority 1998, dated 2005).
# B1: Duramyl: amylase derived from Bacillus licheniformis, purified from a Novo product in granular form (protein, UniProt P06278 30-512, looked up)
# Alpha-amylase: ANLNGTLMQYFEWYMPNDGQHWKRLQNDSAYLAEHGITAVWIPPAYKGTSQADVGYGAYDLYDLGEFHQKGTVRTKYGTKGELQSAIKSLHSRDINVYGDVVINHKGGADATEDVTAVEVDPADRNRVISGEHRIKAWTHFHFPGRGSTYSDFKWHWYHFDGTDWDESRKLNRIYKFQGKAWDWEVSNENGNYDYLMYADIDYDHPDVAAEIKRWGTWYANELQLDGFRLDAVKHIKFSFLRDWVNHVREKTGKEMFTVAEYWQNDLGALENYLNKTNFNHSVFDVPLHYQFHAASTQGGGYDMRKLLNSTVVSKHPLKAVTFVDNHDTQPGQSLESTVQTWFKPLAYAFILTRESGYPQVFYGDMYGTKGDSQREIPALKHKIEPILKARKQYAYGAQHDYFDHHDIVGWTREGDSSVANSGLAALITDGPGGAKRMYVGRQNAGETWHDITGNRSEPVVINSEGWGEFHVNGGSVSIYVQR
# B2: K36: purified liquefying alkaline amylase obtained from strain Bacillus sp. KSM-K36 (FERM BP-6945); SEQ ID NO:2 (protein, listed as Bacillus sp.)
# chain: MKRWVVAMLAVLFLFPSVVVADGLNGTMMQYYEWHLENDGQHWNRLHDDAEALSNAGITAIWIPPAYKGNSQADVGYGAYDLYDLGEFNQKGTVRTKYGTKAQLERAIGSLKSNDINVYGDVVMNHKLGADFTEAVQAVQVNPSNRWQDISGVYTIDAWTGFDFPGRNNAYSDFKWRWFHFNGVDWDQRYQENHLFRFANTNWNWRVDEENGNYDYLLGSNIDFSHPEVQEELKDWGSWFTDELDLDGYRLDAIKHIPFWYTSDWVRHQRSEADQDLFVVGEYWKDDVGALEFYLDEMNWEMSLFDVPLNYNFYRASKQGGSYDMRNILRGSLVEAHPIHAVTFVDNHDTQPGESLESWVADWFKPLAYATILTREGGYPNVFYGDYYGIPNDNISAKKDMIDELLDARQNYAYGTQHDYFDHWDIVGWTREGTSSRPNSGLATIMSNGPGGSKWMYVGQQHAGQTWTDLTGNHAASVTINGDGWGEFFTNGGSVSVYVNQ
# B3: K38: purified liquefying alkaline amylase obtained from strain Bacillus sp. KSM-K38 (FERM BP-6946); SEQ ID NO:4 (protein, listed as Bacillus sp.)
# chain: MRRWVVAMLAVLFLFPSVVVADGLNGTMMQYYEWHLENDGQHWNRLHDDAAALSDAGITAIWIPPAYKGNSQADVGYGAYDLYDLGEFNQKGTVRTKYGTKAQLERAIGSLKSNDINVYGDVVMNHKMGADFTEAVQAVQVNPTNRWQDISGAYTIDAWTGFDFSGRNNAYSDFKWRWFHFNGVDWDQRYQENHIFRFANTNWNWRVDEENGNYDYLLGSNIDFSHPEVQDELKDWGSWFTDELDLDGYRLDAIKHIPFWYTSDWVRHQRNEADQDLFVVGEYWKDDVGALEFYLDEMNWEMSLFDVPLNYNFYRASQQGGSYDMRNILRGSLVEAHPMHAVTFVDNHDTQPGESLESWVADWFKPLAYATILTREGGYPNVFYGDYYGIPNDNISAKKDMIDELLDARQNYAYGTQHDYFDHWDVVGWTREGSSSRPNSGLATIMSNGPGGSKWMYVGRQNAGQTWTDLTGNNGASVTINGDGWGEFFTNGGSVSVYVNQ
# Key:
# [1] = Specific activity: amylase activity measuring method and protein assay kit; format: biochemical; conditions: pH 10 glycine sodium hydroxide buffer, 50° C., 15 minutes, soluble starch as substrate
# Description: In a test tube, 0.5 mL of the 1% aqueous solution of soluble starch, 0.2 mL of the 250 mM glycine sodium hydroxide buffer (pH 10) and 0.2 mL of deionized water (said mixture will hereinafter be called “substrate solution”) were charged, followed by preliminary heating for about 5 minutes in a water bath of 50° C. After preliminary heating, 0.1 ml of a properly diluted enzyme solution was added to the reaction mixture, followed by reaction at 50° C. for 15 minutes. After completion of the reaction, 1.0 mL of the DNS reagent was added to the reaction mixture, followed by color development by heating in boiling water for 5 minutes. Immediately after that, the solution was allowed to cool down in an ice-water bath. The resulting solution, after cooling, was added with 4.0 mL of deionized water, followed by mixing. The absorbance of the solution at 535 nm was then measured.
# In a test tube, 0.9 mL of the substrate solution was charged, followed by the addition of 1.0 mL of the DNS reagent and then with 0.1 mL of an enzyme solution. The resulting mixture was heated in a boiling water for 5 minutes to cause color development. […] The absorbance of the solution at 535 nm was then measured.
# In a test tube, 0.9 mL of the substrate solution was charged, followed by the addition of 1.0 mL of the DNS reagent and then with 0.1 mL of each of the glucose solutions for a calibration curve having various concentrations. […] The absorbance of the solution at 535 nm was then measured. On a graph, the glucose concentration (μmol/0.1 mL) was plotted as abscissa and the absorbance as ordinate and the slope of those linear plots was determined by the least square method. A conversion factor (F) was calculated in accordance with the following formula: Conversion Factor (F)=[1/(slope)]×[1/15]×[1000/0.1]
# With the amount of the enzyme which formed reducing sugar equivalent to 1 μmol of glucose in one minute was defined as one unit (1U), the titer of the enzyme was calculated in accordance with the following formula: Activity of amylase (U/L)=[δ-absorbance]×[conversion factor (F)]×[dilution ratio] […]
# [2] = Resisting performance against citric acid or zeolite (residual enzyme activity); format: physicochemical; conditions: 0 to 0.5% trisodium citrate or synthetic zeolite A-3, pH 10, 40 or 45° C., 30 minutes; FIGS. 3 to 6
# Description: To a 50 mM glycine sodium hydroxide buffer (pH 10) containing trisodium citrate dihydrate (guaranteed class product of Wako Pure Chemical Industries, Ltd.) or synthetic zeolite A-3 (product of Wako Pure Chemical Industries, Ltd.) having each of final concentrations of 0 to 0.5%, a purified enzyme properly diluted with a 10 mM glycine sodium hydroxide buffer (pH 10) was added, followed by treatment at each of predetermined temperatures (40° C. and 45° C.) for 30 minutes. The residual enzyme activity of the reaction mixture was measured in accordance with the amylase activity measuring method [with a 50 mM glycine sodium hydroxide buffer (pH 10)].
# [3] = EDTA or EGTA resisting performance (residual enzyme activity); format: physicochemical; conditions: 0 to 100 mM EDTA or EGTA, pH 10, 30, 40 or 45° C., 30 minutes; FIGS. 1 and 2
# Description: (§1) After 9.3 g of EDTA (product of Sigma Chemical Co., Ltd.) was dissolved in about 80 mL of deionized water, the resulting solution was adjusted to pH 8 with an about SN aqueous sodium hydroxide solution by using a pH meter. To the pH-adjusted solution, deionized water was added to give a total volume of 100 mL, whereby a 250 mM EDTA solution was prepared. The resulting solution was diluted with deionized water to prepare 10 to 100 mM EDTA solutions.
# as §1, with “9.5” for “9.3”, “EGTA” for “EDTA”, “5N” for “SN”
# In a test tube, 0.1 mL of the 10 mM EDTA solution, 0.2 mL of the 250 mM glycine sodium hydroxide buffer (pH 10) and 0.1 mL of deionized water were charged, followed by preliminary heating in a water bath of 45° C. for about 5 minutes. […] Thirty minutes later, a 0.1 mL portion of the resulting solution was added to 0.9 mL of the substrate solution preliminary heated in a water bath of 50° C. and the residual enzyme activity was measured in accordance with the amylase activity measuring method. […]
# [4] = Effects of metal salts (inhibition ratio); format: biochemical; conditions: pH 10, 30° C., 30 minutes; for inhibition ratio by Mn2+: 1 mM Mn2+
# Description: Each of them was treated at pH 10 and 30° C. for 30 minutes in the presence of various metal salts, whereby their effects were studied.
Molecule,Specific activity [1] [U/mg],resisting performance against citric acid or zeolite (residual activity) [2],resisting performance against EDTA or EGTA (residual activity) [3],inhibition ratio by Mn2+ [4],inhibition ratio by Cd2+ (K38 sentence) ([4]; 1 mM Cd2+),inhibition ratio by Sr2+ ([4]; 1 mM Sr2+)
B1,500,,,,,
B2,4300,influenced by neither citric acid nor zeolite,not influenced by highly concentrated EDTA or EGTA,about 95%,,
B3,3600,influenced by neither citric acid nor zeolite,not influenced by highly concentrated EDTA or EGTA,about 75%,about 30%,about 30%
